Experimental data reported in patent US20040039175, “Modulation of viral gene expression by engineered zinc finger proteins” (published 2004).

Columns and labels:
7N [1] = molecular target: T1, 7N (synthetic construct); assay: ELONA; apparent Kd comparable with Zif268, weakest of the three; phage ELISA; details: protein: virion
7N [2] = molecular target: T1, 7N; assay: EMSA; roughly similar apparent Kd to 4/3; details: tags: Promega TNT; label: radiolabel
6F6 (7N-4/3 six-finger) [3] = molecular target: T2, 6F6 (7N-4/3 six-finger) (synthetic construct); assay: EMSA; affinity relative to 4/3 or 7N alone; details: tags: Promega TNT; label: radiolabel
6F6 (7N-4/3 six-finger) [4] = molecular target: T2, 6F6 (7N-4/3 six-finger); assay: EMSA; almost no affinity; 11 mismatches; details: tags: Promega TNT; label: radiolabel
7N [5] = molecular target: T1, 7N; assay: EMSA; intact t2 site; details: tags: Promega TNT; label: radiolabel
6F6 (7N-4/3 six-finger) [6] = molecular target: T2, 6F6 (7N-4/3 six-finger); assay: EMSA; almost no affinity; 3 mismatches; details: tags: Promega TNT; label: radiolabel
7N [7] = molecular target: T1, 7N; assay: EMSA; details: tags: Promega TNT; label: radiolabel
6F6 (7N-4/3 six-finger) [8] = molecular target: T2, 6F6 (7N-4/3 six-finger); assay: EMSA; almost no affinity; 8 mismatches; details: tags: Promega TNT; label: radiolabel
HIV-C = HIV-C (synthetic construct); assay: ELONA; apparent Kd, phage ELISA, Zn2+; details: protein: virion; label: biotin
HIV-D = HIV-D (synthetic construct); assay: ELONA; apparent Kd, phage ELISA, Zn2+; details: protein: virion; label: biotin
HIV-E = HIV-E (synthetic construct); assay: ELONA; apparent Kd, phage ELISA; F3 subsite printed differently in original table; details: protein: virion; label: biotin
HIV-F = HIV-F (synthetic construct); assay: ELONA; apparent Kd, phage ELISA, Zn2+; details: protein: virion; label: biotin
HIV-G = HIV-G (synthetic construct); assay: ELONA; apparent Kd, phage ELISA, Zn2+; details: protein: virion; label: biotin

T2 sequence (chain, as listed by the source): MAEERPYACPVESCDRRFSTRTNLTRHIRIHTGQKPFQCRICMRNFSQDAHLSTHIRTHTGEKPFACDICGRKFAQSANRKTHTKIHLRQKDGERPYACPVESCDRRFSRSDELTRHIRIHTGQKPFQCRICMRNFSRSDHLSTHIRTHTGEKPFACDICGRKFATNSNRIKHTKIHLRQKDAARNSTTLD

B1: t2 (dsDNA)
DNA 1: TAATGAGAT
DNA 2: ATCTCATTA
With B1 as the binder, how does the Kd (7N [1]) read?
The Kd was roughly 0.001 µM.

B2: T24 probe (dsDNA)
DNA 1: CCGCCGGATCGGGCGGTAATGAGATGCCATG
DNA 2: CATGGCATCTCATTACCGCCCGATCCGGCGG
Does B2 bind (7N [2])?
Result: binds

And the binding signal (6F6 (7N-4/3 six-finger) [3])?
Its binding signal is no less than 25 fold.

B3: H2B probe (dsDNA)
DNA 1: ATAGAATCGCTTATGCAAATAAGGTGAAGA
DNA 2: TCTTCACCTTATTTGCATAAGCGATTCTAT
Does B3 bind (6F6 (7N-4/3 six-finger) [4])?
Result: no binding

B4: 68K probe (dsDNA)
DNA 1: CTTCCCGGTTCGGCGGTAATGAGATACGAG
DNA 2: CTCGTATCTCATTACCGCCGAACCGGGAAG
Does B4 bind (7N [5])?
Result: binds

Does B4 bind (6F6 (7N-4/3 six-finger) [6])?
Result: no binding

B5: IE110 probe (dsDNA)
DNA 1: TGGGTTCCGGGTATGGTAATGAGTTTCTTC
DNA 2: GAAGAAACTCATTACCATACCCGGAACCCA
Does B5 bind (7N [7])?
Result: binds

Does B5 bind (6F6 (7N-4/3 six-finger) [8])?
Result: no binding

B6: HIV-C site (dsDNA)
DNA 1: GATGCTGCAT
DNA 2: ATGCAGCATC
B6 was tested. Which Kd (HIV-C) did it give?
The Kd was 0.0137 µM.

B7: HIV-D site (dsDNA)
DNA 1: GCAGCTGCTT
DNA 2: AAGCAGCTGC
With B7 as the binder, how does the Kd (HIV-D) read?
The Kd was 0.004 µM.

B8: HIV-E site (dsDNA)
DNA 1: ATCTGAGCCT
DNA 2: AGGCTCAGAT
Which Kd (HIV-E) does the source give for B8 here?
Its Kd is 0.0366 µM.

B9: HIV-F site (dsDNA)
DNA 1: GGAGCTCTCT
DNA 2: AGAGAGCTCC
B9 was tested. Which Kd (HIV-F) did it give?
Its Kd is 0.0133 µM.

B10: HIV-G site (dsDNA)
DNA 1: GCTAACTAGG
DNA 2: CCTAGTTAGC
For B10, which Kd (HIV-G) is on record?
Its Kd is 0.0403 µM.
